Measured values: PMC9618773 (iScience, 2022)

B1: full-length human progesterone receptor-B (receptor, UniProt P06401 1-933, looked up)
chain: MTELKAKGPRAPHVAGGPPSPEVGSPLLCRPAAGPFPGSQTSDTLPEVSAIPISLDGLLFPRPCQGQDPSDEKTQDQQSLSDVEGAYSRAEATRGAGGSSSSPPEKDSGLLDSVLDTLLAPSGPGQSQPSPPACEVTSSWCLFGPELPEDPPAAPATQRVLSPLMSRSGCKVGDSSGTAAAHKVLPRGLSPARQLLLPASESPHWSGAPVKPSPQAAAVEVEEEDGSESEESAGPLLKGKPRALGGAAAGGGAAAVPPGAAAGGVALVPKEDSRFSAPRVALVEQDAPMAPGRSPLATTVMDFIHVPILPLNHALLAARTRQLLEDESYDGGAGAASAFAPPRSSPCASSTPVAVGDFPDCAYPPDAEPKDDAYPLYSDFQPPALKIKEEEEGAEASARSPRSYLVAGANPAAFPDFPLGPPPPLPPRATPSRPGEAAVTAAPASASVSSASSSGSTLECILYKAEGAPPQQGPFAPPPCKAPGASGCLLPRDGLPSTSASAAAAGAAPALYPALGLNGLPQLGYQAAVLKEGLPQVYPPYLNYLRPDSEASQSPQYSFESLPQKICLICGDEASGCHYGVLTCGSCKVFFKRAMEGQHNYLCAGRNDCIVDKIRRKNCPACRLRKCCQAGMVLGGRKFKKFNKVRVVRALDAVALPQPVGVPNESQALSQRFTFSPGQDIQLIPPLINLLMSIEPDVIYAGHDNTKPDTSSSLLTSLNQLGERQLLSVVKWSKSLPGFRNLHIDDQITLIQYSWMSLMVFGLGWRSYKHVSGQMLYFAPDLILNEQRMKESSFYSLCLTMWQIPQEFVKLQVSQEEFLCMKVLLLLNTIPLEGLRSQTQFEEMRSSYIRELIKAIGLRQKGVVSSSQRFYQLTKLLDNLHDLVKQLHLYCLNTFIQSRALSVEFPEMMSEVIAAQLPKILAGMVKPLLFHKK
B2: full-length human steroid receptor coactivator-2 (natural protein)
chain: not shown
B3: GST-fused PR-B fragment AF3 (1-170 aa) (domain or fragment, human, UniProt P06401 1-170, looked up)
chain: MTELKAKGPRAPHVAGGPPSPEVGSPLLCRPAAGPFPGSQTSDTLPEVSAIPISLDGLLFPRPCQGQDPSDEKTQDQQSLSDVEGAYSRAEATRGAGGSSSSPPEKDSGLLDSVLDTLLAPSGPGQSQPSPPACEVTSSWCLFGPELPEDPPAAPATQRVLSPLMSRSGC
B4: GST-fused PR-B fragment AF1 (401-546 aa) (domain or fragment, human, UniProt P06401 401-546, looked up)
chain: PRSYLVAGANPAAFPDFPLGPPPPLPPRATPSRPGEAAVTAAPASASVSSASSSGSTLECILYKAEGAPPQQGPFAPPPCKAPGASGCLLPRDGLPSTSASAAAAGAAPALYPALGLNGLPQLGYQAAVLKEGLPQVYPPYLNYLR
B5: GST-fused PR-B fragment LBD (688-933 aa, which contains the AF2) (domain or fragment, human, UniProt P06401 688-933, looked up)
chain: INLLMSIEPDVIYAGHDNTKPDTSSSLLTSLNQLGERQLLSVVKWSKSLPGFRNLHIDDQITLIQYSWMSLMVFGLGWRSYKHVSGQMLYFAPDLILNEQRMKESSFYSLCLTMWQIPQEFVKLQVSQEEFLCMKVLLLLNTIPLEGLRSQTQFEEMRSSYIRELIKAIGLRQKGVVSSSQRFYQLTKLLDNLHDLVKQLHLYCLNTFIQSRALSVEFPEMMSEVIAAQLPKILAGMVKPLLFHKK

Key:
cryo-EM structure = biological target: the molecule itself; test: cryo-EM structure
full-length human p300 [1] = biological target: T1, full-length human p300 (human, UniProt Q09472 1-2414); test: cryo-EM structure
[2] = biological target: B2; test: cryo-EM structure
full-length human p300 [3] = biological target: T1, full-length human p300; test: pull-down
[4] = biological target: B2; test: pull-down

T1 sequence (Q09472 whole entry): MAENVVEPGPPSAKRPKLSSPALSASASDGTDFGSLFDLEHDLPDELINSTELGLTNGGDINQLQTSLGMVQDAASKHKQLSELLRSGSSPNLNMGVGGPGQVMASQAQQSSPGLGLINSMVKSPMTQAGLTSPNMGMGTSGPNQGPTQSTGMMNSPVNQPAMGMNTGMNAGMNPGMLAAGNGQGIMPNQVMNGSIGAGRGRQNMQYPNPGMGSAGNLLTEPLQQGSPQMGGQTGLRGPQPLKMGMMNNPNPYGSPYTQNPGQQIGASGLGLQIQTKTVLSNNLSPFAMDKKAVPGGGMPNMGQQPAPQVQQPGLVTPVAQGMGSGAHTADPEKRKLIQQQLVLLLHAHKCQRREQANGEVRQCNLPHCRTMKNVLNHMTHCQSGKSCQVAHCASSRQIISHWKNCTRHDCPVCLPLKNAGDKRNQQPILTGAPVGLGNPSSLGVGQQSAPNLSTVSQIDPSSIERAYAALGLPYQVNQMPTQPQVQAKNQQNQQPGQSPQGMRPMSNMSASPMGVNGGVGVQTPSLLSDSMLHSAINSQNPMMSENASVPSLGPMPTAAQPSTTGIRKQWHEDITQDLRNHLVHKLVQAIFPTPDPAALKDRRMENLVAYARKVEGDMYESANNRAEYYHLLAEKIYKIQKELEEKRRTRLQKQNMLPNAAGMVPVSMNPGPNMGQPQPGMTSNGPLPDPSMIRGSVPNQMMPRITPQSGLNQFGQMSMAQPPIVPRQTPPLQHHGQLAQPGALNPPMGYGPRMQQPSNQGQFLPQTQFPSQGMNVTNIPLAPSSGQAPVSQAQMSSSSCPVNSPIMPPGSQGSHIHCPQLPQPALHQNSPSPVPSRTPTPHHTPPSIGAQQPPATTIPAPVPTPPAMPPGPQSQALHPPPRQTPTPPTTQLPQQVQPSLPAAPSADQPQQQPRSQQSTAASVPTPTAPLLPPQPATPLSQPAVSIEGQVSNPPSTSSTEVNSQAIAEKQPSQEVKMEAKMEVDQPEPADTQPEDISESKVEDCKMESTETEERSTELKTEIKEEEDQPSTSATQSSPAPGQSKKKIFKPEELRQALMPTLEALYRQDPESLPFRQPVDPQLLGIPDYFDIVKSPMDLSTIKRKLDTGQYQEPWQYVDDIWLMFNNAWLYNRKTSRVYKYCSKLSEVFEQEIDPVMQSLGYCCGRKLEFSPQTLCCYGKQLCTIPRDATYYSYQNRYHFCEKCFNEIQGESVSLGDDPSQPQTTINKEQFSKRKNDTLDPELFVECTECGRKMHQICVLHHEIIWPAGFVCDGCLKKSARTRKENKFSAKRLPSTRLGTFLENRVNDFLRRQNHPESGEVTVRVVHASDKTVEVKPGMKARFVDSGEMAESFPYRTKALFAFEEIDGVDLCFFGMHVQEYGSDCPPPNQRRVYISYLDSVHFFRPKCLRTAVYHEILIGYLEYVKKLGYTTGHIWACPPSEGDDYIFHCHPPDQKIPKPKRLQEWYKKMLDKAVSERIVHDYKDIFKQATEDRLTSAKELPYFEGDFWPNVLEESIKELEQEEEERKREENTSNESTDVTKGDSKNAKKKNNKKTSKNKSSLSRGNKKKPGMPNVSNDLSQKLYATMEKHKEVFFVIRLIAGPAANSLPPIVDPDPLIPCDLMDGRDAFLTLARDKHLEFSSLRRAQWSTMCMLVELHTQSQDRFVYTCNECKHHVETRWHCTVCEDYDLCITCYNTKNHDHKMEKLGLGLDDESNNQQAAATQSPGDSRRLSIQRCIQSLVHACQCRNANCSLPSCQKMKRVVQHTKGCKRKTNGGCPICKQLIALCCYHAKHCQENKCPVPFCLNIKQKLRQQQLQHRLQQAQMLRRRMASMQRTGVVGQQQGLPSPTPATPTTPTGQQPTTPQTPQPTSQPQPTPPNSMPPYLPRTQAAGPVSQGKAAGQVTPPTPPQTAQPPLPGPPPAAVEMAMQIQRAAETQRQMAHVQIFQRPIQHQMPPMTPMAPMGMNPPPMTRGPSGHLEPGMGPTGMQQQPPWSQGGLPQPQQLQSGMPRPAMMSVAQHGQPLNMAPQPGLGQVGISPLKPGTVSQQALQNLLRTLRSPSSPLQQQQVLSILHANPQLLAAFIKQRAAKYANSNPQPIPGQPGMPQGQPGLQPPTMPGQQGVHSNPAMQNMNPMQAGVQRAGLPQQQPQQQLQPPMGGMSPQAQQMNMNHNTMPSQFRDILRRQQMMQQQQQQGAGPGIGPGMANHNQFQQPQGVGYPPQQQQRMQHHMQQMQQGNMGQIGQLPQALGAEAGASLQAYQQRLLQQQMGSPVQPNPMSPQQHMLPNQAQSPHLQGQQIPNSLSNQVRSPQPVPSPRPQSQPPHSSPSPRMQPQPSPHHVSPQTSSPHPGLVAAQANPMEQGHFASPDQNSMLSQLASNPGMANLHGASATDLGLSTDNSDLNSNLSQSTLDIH

B1
stoichiometry N (cryo-EM structure): 2
binding result (full-length human p300 [1]): binds
binding result [2]: binds

B2
binding result (full-length human p300 [1]): binds

B3
binding result (full-length human p300 [3]): binds

B4
binding result (full-length human p300 [3]): binds
binding result [4]: binds

B5
binding result (full-length human p300 [3]): binds
